T1: APBA1_1, Q02410
T1 sequence (Q02410 651-752, limits assumed, looked up): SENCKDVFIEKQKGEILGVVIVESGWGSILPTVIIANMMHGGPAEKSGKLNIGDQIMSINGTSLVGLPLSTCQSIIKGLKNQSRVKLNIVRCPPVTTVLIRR

T2: APBA1_2, Q02410
T2 sequence (Q02410 742-832, limits assumed, looked up): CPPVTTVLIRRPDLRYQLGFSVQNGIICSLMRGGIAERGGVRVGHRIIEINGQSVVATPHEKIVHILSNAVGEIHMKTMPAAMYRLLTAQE

T3: ARHGAP21, Q5T5U3
T3 sequence (Q5T5U3 45-169, limits assumed, looked up): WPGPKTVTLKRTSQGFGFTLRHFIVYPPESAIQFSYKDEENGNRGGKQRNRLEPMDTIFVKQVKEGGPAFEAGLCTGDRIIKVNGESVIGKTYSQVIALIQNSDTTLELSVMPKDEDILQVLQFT

T4: ARHGEF11, O15085
T4 sequence (O15085 42-136, limits assumed, looked up): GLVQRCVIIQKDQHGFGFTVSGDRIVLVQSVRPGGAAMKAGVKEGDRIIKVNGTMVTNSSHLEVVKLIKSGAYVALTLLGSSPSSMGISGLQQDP

T5: LIN7C, Q9NUP9
T5 sequence (Q9NUP9 88-185, limits assumed, looked up): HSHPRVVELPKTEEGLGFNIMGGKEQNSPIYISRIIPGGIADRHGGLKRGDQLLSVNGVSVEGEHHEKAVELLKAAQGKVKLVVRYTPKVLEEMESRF

T6: LNX2_3, Q8N448
T6 sequence (Q8N448 463-564, limits assumed, looked up): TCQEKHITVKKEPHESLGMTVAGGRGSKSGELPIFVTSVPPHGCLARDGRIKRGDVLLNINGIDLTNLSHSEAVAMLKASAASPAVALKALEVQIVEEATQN

T7: LRRC7, Q96NW7
T7 sequence (Q96NW7 1440-1537, limits assumed, looked up): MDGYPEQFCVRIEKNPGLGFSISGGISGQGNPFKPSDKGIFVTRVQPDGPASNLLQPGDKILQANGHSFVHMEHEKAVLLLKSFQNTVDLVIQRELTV

T8: RAPGEF6, Q8TEU7
T8 sequence (Q8TEU7 525-625, limits assumed, looked up): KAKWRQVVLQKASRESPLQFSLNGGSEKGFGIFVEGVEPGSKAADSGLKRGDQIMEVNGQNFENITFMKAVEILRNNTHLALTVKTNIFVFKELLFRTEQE

T9: SHANK1, Q9Y566
T9 sequence (Q9Y566 658-767, limits assumed, looked up): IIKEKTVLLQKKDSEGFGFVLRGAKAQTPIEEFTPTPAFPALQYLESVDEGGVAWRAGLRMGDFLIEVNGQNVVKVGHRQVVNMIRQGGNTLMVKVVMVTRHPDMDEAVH

T10: TJP3_3, O95049
T10 sequence (O95049 375-456, limits assumed, looked up): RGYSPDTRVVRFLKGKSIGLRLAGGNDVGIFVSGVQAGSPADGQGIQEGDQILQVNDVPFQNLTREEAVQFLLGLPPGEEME

B1: PRLHR, P49683 (peptide)
chain: GQNMTVSVVI
B2: SLC15A2, Q16348 (peptide)
chain: IKLETKKTKL

What follows are binders tested against T1, APBA1_1, Q02410 (assay: holdup assay). Conditions: plain residues with an end cap or a label only (N-terminal biotin on a linker: ado-ado).
Design: key: below the threshold = too weak to quantify, mostly under pKd 3.1 to 4

B1 was tested. Which pKd did it give?
The pKd was “below the threshold”.

With B2 as the binder, how does the pKd read?
The pKd was “below the threshold”.

Each binder was assayed against T2, APBA1_2, Q02410 (assay: holdup assay). Conditions: plain residues with an end cap or a label only (N-terminal biotin on a linker: ado-ado).
Design: key: below the threshold = too weak to quantify, mostly under pKd 3.1 to 4

Which pKd does the source give for B1 here?
Its pKd is 3.87.

Which pKd does the source give for B2 here?
The pKd was 3.67.

What follows are binders tested against T3, ARHGAP21, Q5T5U3 (assay: holdup assay). Conditions: plain residues with an end cap or a label only (N-terminal biotin on a linker: ado-ado).
Design: key: below the threshold = too weak to quantify, mostly under pKd 3.1 to 4

B1 was tested. Which pKd did it give?
The pKd was “below the threshold”.

For B2, which pKd is on record?
The pKd was 3.98.

The binders below were run against T4, ARHGEF11, O15085 (assay: holdup assay). Conditions: plain residues with an end cap or a label only (N-terminal biotin on a linker: ado-ado).
Design: key: below the threshold = too weak to quantify, mostly under pKd 3.1 to 4

Which pKd does the source give for B1 here?
Its pKd is 4.94.

With B2 as the binder, how does the pKd read?
The pKd was 4.27.

Each binder was assayed against DLG2_3, Q15700 (assay: holdup assay). Conditions: plain residues with an end cap or a label only (N-terminal biotin on a linker: ado-ado).
Design: key: below the threshold = too weak to quantify, mostly under pKd 3.1 to 4

With B1 as the binder, how does the pKd read?
The pKd was 3.74.

How did the pKd turn out when B2 was run?
Its pKd is “below the threshold”.

The binders below were run against DLG4_1, P78352 (assay: holdup assay). Conditions: plain residues with an end cap or a label only (N-terminal biotin on a linker: ado-ado).
Design: key: below the threshold = too weak to quantify, mostly under pKd 3.1 to 4

Chain of DLG4_1, P78352 (P78352 62-152): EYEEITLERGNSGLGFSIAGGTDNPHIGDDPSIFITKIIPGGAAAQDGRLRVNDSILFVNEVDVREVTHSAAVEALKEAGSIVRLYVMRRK

With B1 as the binder, how does the pKd read?
Its pKd is “below the threshold”.

For B2, which pKd is on record?
Its pKd is 3.69.

These binders were tested against FRMPD2_1, Q68DX3 (assay: holdup assay). Conditions: plain residues with an end cap or a label only (N-terminal biotin on a linker: ado-ado).
Design: key: below the threshold = too weak to quantify, mostly under pKd 3.1 to 4

Chain of FRMPD2_1, Q68DX3 (Q68DX3 770-861): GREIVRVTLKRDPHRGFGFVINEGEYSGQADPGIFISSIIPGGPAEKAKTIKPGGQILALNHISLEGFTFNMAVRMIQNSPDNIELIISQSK

How did the pKd turn out when B1 was run?
Its pKd is “below the threshold”.

With B2 as the binder, how does the pKd read?
The pKd was “below the threshold”.

These binders were tested against FRMPD2_2, Q68DX3 (assay: holdup assay). Conditions: plain residues with an end cap or a label only (N-terminal biotin on a linker: ado-ado).
Design: key: below the threshold = too weak to quantify, mostly under pKd 3.1 to 4

Chain of FRMPD2_2, Q68DX3 (Q68DX3 944-1038): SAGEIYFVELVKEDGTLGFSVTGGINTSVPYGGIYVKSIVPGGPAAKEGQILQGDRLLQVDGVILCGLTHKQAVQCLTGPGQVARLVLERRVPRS

Which pKd does the source give for B1 here?
The pKd was “below the threshold”.

For B2, which pKd is on record?
Its pKd is “below the threshold”.

These binders were tested against GRID2IP_1, A4D2P6 (assay: holdup assay). Conditions: plain residues with an end cap or a label only (N-terminal biotin on a linker: ado-ado).
Design: key: below the threshold = too weak to quantify, mostly under pKd 3.1 to 4

Chain of GRID2IP_1, A4D2P6 (A4D2P6 1-87): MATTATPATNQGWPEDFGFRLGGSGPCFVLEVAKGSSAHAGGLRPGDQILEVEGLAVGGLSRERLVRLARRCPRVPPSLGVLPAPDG

How did the pKd turn out when B1 was run?
The pKd was “below the threshold”.

How did the pKd turn out when B2 was run?
The pKd was “below the threshold”.

Each binder was assayed against Inadl_2, Q8NI35 (assay: holdup assay). Conditions: plain residues with an end cap or a label only (N-terminal biotin on a linker: ado-ado).
Design: key: below the threshold = too weak to quantify, mostly under pKd 3.1 to 4

Chain of Inadl_2, Q8NI35 (Q8NI35 238-335): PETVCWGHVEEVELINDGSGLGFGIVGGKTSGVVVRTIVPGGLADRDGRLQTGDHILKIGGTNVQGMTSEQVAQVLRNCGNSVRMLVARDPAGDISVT

With B1 as the binder, how does the pKd read?
Its pKd is “below the threshold”.

With B2 as the binder, how does the pKd read?
Its pKd is “below the threshold”.

What follows are binders tested against Inadl_4, Q8NI35 (assay: holdup assay). Conditions: plain residues with an end cap or a label only (N-terminal biotin on a linker: ado-ado).
Design: key: below the threshold = too weak to quantify, mostly under pKd 3.1 to 4

Chain of Inadl_4, Q8NI35 (Q8NI35 547-651): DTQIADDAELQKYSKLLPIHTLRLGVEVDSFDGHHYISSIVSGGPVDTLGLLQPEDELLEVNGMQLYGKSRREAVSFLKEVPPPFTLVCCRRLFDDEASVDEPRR

Which pKd does the source give for B1 here?
The pKd was “below the threshold”.

B2 was tested. Which pKd did it give?
The pKd was “below the threshold”.

These binders were tested against Inadl_8, Q8NI35 (assay: holdup assay). Conditions: plain residues with an end cap or a label only (N-terminal biotin on a linker: ado-ado).
Design: key: below the threshold = too weak to quantify, mostly under pKd 3.1 to 4

Chain of Inadl_8, Q8NI35 (Q8NI35 1425-1530): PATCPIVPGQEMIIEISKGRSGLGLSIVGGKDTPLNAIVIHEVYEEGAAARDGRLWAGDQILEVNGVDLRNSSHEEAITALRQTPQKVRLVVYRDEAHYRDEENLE

How did the pKd turn out when B1 was run?
The pKd was 3.8.

B2 was tested. Which pKd did it give?
The pKd was 3.76.

The binders below were run against LDB3, O75112 (assay: holdup assay). Conditions: plain residues with an end cap or a label only (N-terminal biotin on a linker: ado-ado).
Design: key: below the threshold = too weak to quantify, mostly under pKd 3.1 to 4

Chain of LDB3, O75112 (O75112 1-94): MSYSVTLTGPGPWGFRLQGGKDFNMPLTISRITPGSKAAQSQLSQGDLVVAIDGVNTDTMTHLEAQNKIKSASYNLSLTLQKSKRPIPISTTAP

Which pKd does the source give for B1 here?
The pKd was “below the threshold”.

B2 was tested. Which pKd did it give?
The pKd was “below the threshold”.

The binders below were run against T5, LIN7C, Q9NUP9 (assay: holdup assay). Conditions: plain residues with an end cap or a label only (N-terminal biotin on a linker: ado-ado).
Design: key: below the threshold = too weak to quantify, mostly under pKd 3.1 to 4

Which pKd does the source give for B1 here?
The pKd was “below the threshold”.

How did the pKd turn out when B2 was run?
The pKd was “below the threshold”.

These binders were tested against T6, LNX2_3, Q8N448 (assay: holdup assay). Conditions: plain residues with an end cap or a label only (N-terminal biotin on a linker: ado-ado).
Design: key: below the threshold = too weak to quantify, mostly under pKd 3.1 to 4

For B1, which pKd is on record?
The pKd was 3.61.

With B2 as the binder, how does the pKd read?
Its pKd is “below the threshold”.

The binders below were run against T7, LRRC7, Q96NW7 (assay: holdup assay). Conditions: plain residues with an end cap or a label only (N-terminal biotin on a linker: ado-ado).
Design: key: below the threshold = too weak to quantify, mostly under pKd 3.1 to 4

With B1 as the binder, how does the pKd read?
Its pKd is “below the threshold”.

B2 was tested. Which pKd did it give?
Its pKd is “below the threshold”.

What follows are binders tested against MAGI2_3, Q86UL8 (assay: holdup assay). Conditions: plain residues with an end cap or a label only (N-terminal biotin on a linker: ado-ado).
Design: key: below the threshold = too weak to quantify, mostly under pKd 3.1 to 4

Chain of MAGI2_3, Q86UL8 (Q86UL8 600-682): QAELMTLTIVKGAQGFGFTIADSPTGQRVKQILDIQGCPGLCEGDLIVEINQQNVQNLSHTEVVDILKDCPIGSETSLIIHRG

B1 was tested. Which pKd did it give?
The pKd was “below the threshold”.

Which pKd does the source give for B2 here?
Its pKd is 3.6.

Each binder was assayed against MAGI2_4, Q86UL8 (assay: holdup assay). Conditions: plain residues with an end cap or a label only (N-terminal biotin on a linker: ado-ado).
Design: key: below the threshold = too weak to quantify, mostly under pKd 3.1 to 4

Chain of MAGI2_4, Q86UL8 (Q86UL8 772-865): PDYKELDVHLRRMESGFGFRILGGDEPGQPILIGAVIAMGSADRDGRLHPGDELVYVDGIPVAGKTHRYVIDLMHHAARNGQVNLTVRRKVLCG

How did the pKd turn out when B1 was run?
Its pKd is “below the threshold”.

With B2 as the binder, how does the pKd read?
The pKd was “below the threshold”.

Each binder was assayed against MAGI3_2, Q5TCQ9 (assay: holdup assay). Conditions: plain residues with an end cap or a label only (N-terminal biotin on a linker: ado-ado).
Design: key: below the threshold = too weak to quantify, mostly under pKd 3.1 to 4

Chain of MAGI3_2, Q5TCQ9 (Q5TCQ9 398-503): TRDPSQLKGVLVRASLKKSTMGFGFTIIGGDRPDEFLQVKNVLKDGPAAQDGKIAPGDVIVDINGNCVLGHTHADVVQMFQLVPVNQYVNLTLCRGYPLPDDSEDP

B1 was tested. Which pKd did it give?
Its pKd is “below the threshold”.

For B2, which pKd is on record?
The pKd was 3.49.

These binders were tested against NHERF4_1, Q86UT5-2 (assay: holdup assay). Conditions: plain residues with an end cap or a label only (N-terminal biotin on a linker: ado-ado).
Design: key: below the threshold = too weak to quantify, mostly under pKd 3.1 to 4

Chain of NHERF4_1, Q86UT5-2 (Q86UT5 other isoform, or with tags, fused parts or gaps): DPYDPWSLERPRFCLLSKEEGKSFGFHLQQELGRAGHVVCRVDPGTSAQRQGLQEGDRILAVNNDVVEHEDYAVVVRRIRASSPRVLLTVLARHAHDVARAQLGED

Which pKd does the source give for B1 here?
The pKd was 3.64.

How did the pKd turn out when B2 was run?
Its pKd is 4.27.

These binders were tested against NHERF4_2, Q86UT5 (assay: holdup assay). Conditions: plain residues with an end cap or a label only (N-terminal biotin on a linker: ado-ado).
Design: key: below the threshold = too weak to quantify, mostly under pKd 3.1 to 4

Chain of NHERF4_2, Q86UT5 (Q86UT5 220-308): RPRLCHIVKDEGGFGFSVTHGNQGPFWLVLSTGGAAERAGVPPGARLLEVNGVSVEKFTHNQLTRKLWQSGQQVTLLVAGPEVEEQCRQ

With B1 as the binder, how does the pKd read?
The pKd was “below the threshold”.

With B2 as the binder, how does the pKd read?
The pKd was 3.63.

What follows are binders tested against PARD3_3, Q8TEW0 (assay: holdup assay). Conditions: plain residues with an end cap or a label only (N-terminal biotin on a linker: ado-ado).
Design: key: below the threshold = too weak to quantify, mostly under pKd 3.1 to 4

Chain of PARD3_3, Q8TEW0 (Q8TEW0 582-685): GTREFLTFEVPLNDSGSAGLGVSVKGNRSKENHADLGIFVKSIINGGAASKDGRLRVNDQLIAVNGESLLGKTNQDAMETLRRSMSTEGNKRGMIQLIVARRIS

For B1, which pKd is on record?
Its pKd is 4.1.

Which pKd does the source give for B2 here?
The pKd was “below the threshold”.

The binders below were run against PDLIM1, O00151 (assay: holdup assay). Conditions: plain residues with an end cap or a label only (N-terminal biotin on a linker: ado-ado).
Design: key: below the threshold = too weak to quantify, mostly under pKd 3.1 to 4

Chain of PDLIM1, O00151 (O00151 1-87): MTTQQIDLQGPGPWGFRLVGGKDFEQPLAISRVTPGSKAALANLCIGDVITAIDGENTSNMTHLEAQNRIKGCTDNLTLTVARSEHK

With B1 as the binder, how does the pKd read?
Its pKd is “below the threshold”.

With B2 as the binder, how does the pKd read?
The pKd was “below the threshold”.

Each binder was assayed against PTPN3, P26045 (assay: holdup assay). Conditions: plain residues with an end cap or a label only (N-terminal biotin on a linker: ado-ado).
Design: key: below the threshold = too weak to quantify, mostly under pKd 3.1 to 4

Chain of PTPN3, P26045 (P26045 505-587): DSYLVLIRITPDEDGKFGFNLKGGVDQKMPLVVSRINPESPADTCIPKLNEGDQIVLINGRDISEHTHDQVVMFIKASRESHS

With B1 as the binder, how does the pKd read?
Its pKd is 3.77.

B2 was tested. Which pKd did it give?
Its pKd is “below the threshold”.

What follows are binders tested against T8, RAPGEF6, Q8TEU7 (assay: holdup assay). Conditions: plain residues with an end cap or a label only (N-terminal biotin on a linker: ado-ado).
Design: key: below the threshold = too weak to quantify, mostly under pKd 3.1 to 4

For B1, which pKd is on record?
Its pKd is “below the threshold”.

B2 was tested. Which pKd did it give?
The pKd was 3.48.

What follows are binders tested against SCRIB_2, Q14160 (assay: holdup assay). Conditions: plain residues with an end cap or a label only (N-terminal biotin on a linker: ado-ado).
Design: key: below the threshold = too weak to quantify, mostly under pKd 3.1 to 4

Chain of SCRIB_2, Q14160 (Q14160 857-960): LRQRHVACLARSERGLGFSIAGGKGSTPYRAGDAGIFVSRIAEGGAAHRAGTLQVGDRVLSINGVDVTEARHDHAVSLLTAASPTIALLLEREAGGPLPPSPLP

For B1, which pKd is on record?
Its pKd is “below the threshold”.

For B2, which pKd is on record?
Its pKd is “below the threshold”.

What follows are binders tested against T9, SHANK1, Q9Y566 (assay: holdup assay). Conditions: plain residues with an end cap or a label only (N-terminal biotin on a linker: ado-ado).
Design: key: below the threshold = too weak to quantify, mostly under pKd 3.1 to 4

How did the pKd turn out when B1 was run?
Its pKd is “below the threshold”.

B2 was tested. Which pKd did it give?
Its pKd is 4.85.

These binders were tested against T10, TJP3_3, O95049 (assay: holdup assay). Conditions: plain residues with an end cap or a label only (N-terminal biotin on a linker: ado-ado).
Design: key: below the threshold = too weak to quantify, mostly under pKd 3.1 to 4

For B1, which pKd is on record?
The pKd was “below the threshold”.

How did the pKd turn out when B2 was run?
The pKd was “below the threshold”.
